From article PMC4336326, “The Nucleocapsid Protein of Human Coronavirus NL63” (PLoS ONE, 2015)

B1: HCoV-NL63 nucleocapsid (N) protein, complete (natural protein)
chain: MASVNWADDRAARKKFPPPSFYMPLLVSSDKAPYRVIPRNLVPIGKGNKDEQIGYWNVQERWRMRRGQRVDLPPKVHFYYLGTGPHKDLKFRQRSDGVVWVAKEGAKTVNTSLGNRKRNQKPLEPKFSIALPPELSVVEFEDRSNNSSRASSRSSTRNNSRDSSRSTSRQQSRTRSDSNQSSSDLVAAVTLALKNLGFDNQSKSPSSSGTSTPKKPNKPLSQPRADKPSQLKKPRWKRVPTREENVIQCFGPRDFNHNMGDSDLVQNGVDAKGFPQLAELIPNQAALFFDSEVSTDEVGDNVQITYTYKMLVAKDNKNLPKFIEQISAFTKPSSIKEMQSQSSHVAQNTVLNASIPESKPLADDDSAIIEIVNEVLH
notes: also called WT; complete NL63-N protein; source: E. coli BL21, purified (Ni Sepharose, Resource Q, Superdex S75) to about 80% homogeneity

Assays:
[1] = target: C-terminal domain of the HCoV-NL63 nucleocapsid protein (HCoV-NL63 (isolate Amsterdam 1)) (UniProt Q6Q1R8); assay: cross-linking; 50 ug of protein with 0.007% glutaraldehyde, 15 min at room temperature, stopped with Tris, then SDS-PAGE (Coomassie)
[2] = target: C-terminal domain of the HCoV-NL63 nucleocapsid protein (HCoV-NL63 (isolate Amsterdam 1)) (UniProt Q6Q1R8); assay: SEC; CTD analysed by size exclusion chromatography; two peaks taken as dimer and monomer from retention time and SDS-PAGE; column and buffer not given
[3] = target: the molecule itself; assay: native MS; ESI mass spectrometry (MicroTOF-QII, positive ionization mode) of samples dialysed into 50 mM NH4HCO3, pH 7.8; masses of monomer and dimer from deconvolved spectra

Molecule | stoichiometry N [1] | percent of the protein present as dimers [2] | stoichiometry N [2] | stoichiometry N [3]
C-terminal domain of the HCoV-NL63 nucleocapsid protein (from UniProt Q6Q1R8 221-340) (domain or fragment) | > 2 | 40% | 2 | 
B1 |  |  |  | 2
